Experiment: soluble on expression in E. coli; label from the status in PepcDB or PDB records

| Sequence | soluble on expression in E. coli |
| --- | --- |
| MSLDSIKVKNEYEKLTGSDSVVRRGMFNVYQKKNDYYFEIPSTLLERDMLVVNKLQRVPAELNEAGVNRGTNYENQMIRFELDKSANKLLIRQSRPLPISPSEDAISQSVKDNYISPLIAGFKVEAYNNDSTSILIKVNDIYDGTETSINNVFTNINLGTSAIKNLSRILSIKSFDNNVVATSELTTRVTEGTTTIYVTVEVSSSILLLPEVPMTGRLDNPRVGYFTNPLTNFSDGQQRVNKKQFITRWRLEPRPEDRAAYLRGELVEPRKPIVFYIENSTPYRWRKYIKQGIEDWQVAFERAGFKNAIIAKDITEDMEVDMDDVNYSVLTYAASTKANAMGPSILDPRSGEILEADIMWWHNVLSMLQEWITVQTGVVRPEARGVALPDSLMGDAMRFVACHEVGHSLGLRHNMMGSWAFPTDSLRSKTFTDRMNSTSSSIMDYARFNYVAQPGDGIKALSPHIGPYDMFAIEYGYRWYGKQTPEEEKELLQDFLAKHTDRLYKYSEAQDPRDAVDPRAQNEDLGDDPIRSSQYGIANLKCIVPQIIQWTTTGEKGQTYEEASRLYYAVINQWNNYLYHVMANIGGIYIENTTVGDGEKTYTFVEKEKQQAALRFLLDEVLCYPKWLFDPEIAQYTYLLKNTPLGVVENAPTQVLKNAQAYVFWDLLSNNRLMRMLENESVNGKKAFTAVELMDGLHKSIFAVTERGGLPDVMTRNLQKGFVDALITAAAESEGVKVNKKLIDNHFLFDLQTPICSCDDHVHRSAHTDRMGARRELNFYGSQINRISDAISVKRGELLRIKDLLQSRLGTSDVATKYHYKDLILRINTALGISKEGHHHHHH | soluble |
| MSLNNIQIRNYQPGDFQQLCAIFIRAVTMTASQHYSPQQISAWAQIDESRWKEKLAKSQVWVAIINAQPVGFISRIEHYIDMLFVDPEYTRRGVASALLKPLIKSESELTVDASITAKPFFERYGFQTVKQQRVECRGAWFTNFYMRYKPQHEGGSHHHHHH | soluble |
| MMYRIRNWLVATLLLLCAQVGAATLSDIQVSNGNQQARITLSFIGDPDYAFSHQSKRTVALDIKQTGVIQGLPLLFSGNNLVKAIRSGTPKDAQTLRLVVDLTENGKTEAVKRQNGSNYTVVFTINADAPPPPPPPPVVVKRVETPTVVAPRVSEPARNPFKTESNRTTGVISSNTVTRPAARATANNGDKIIIAIDAGHGGQDPGAIGPGGTREKNVTIAIARKLRTLLNDDPMFKGVLTRDGDYFISVMGRSDVARKQNANFLVSIHADAAPNRSATGASVWVLSNRRANSEMASWLEQHEKQSELLGGAGDVLANSQSDPYLSQAVLDLQFGHSQRVGYDVATSMISQLQRIGEIHKRRPEHASLGVLRSPDIPSVLVETGFISNNSEERLLASDDYQQQLAEAIYKGLRNYFLAHPMQSAPQGATAQTASTVTTPDRTLPN | not soluble |
| MNTLFMHCRPGFEGEVCSEIADLAARLDVSGYAKARPDTACAEFICTEADGAERLMNGQRFDTLIFPRQWARGLFLDLPETDRISVILAQLSTFPTCGSLWLEVVDTNDGKELSNFCKKFEAPLRKALTQAGKLVDDPRKPRLLLTFKSGREVFLGLAEADNSAMWPMGIPRLKFPREAPSRSTLKLEEAWHHFIPRDQWDERLSGDMTGVDLGAAPGGWTYQLVRRGMLVTAIDNGPMAESLMDTGLVQHLMADGFTYKPRHPVDWMVCDIVEKPARNAALLETWLGEGLCREAVVNLKLPMKQRYAEVRRLLDRIEEGFQARGVRVSIGCKQLYHDREEVTCHLRRLDVAKAARK | not soluble |
| MTVQQSGRRERKKAATRQKIADTALRLFLERGYDAVGIRDVAAEADVAVTTLFSHFASKEALVFEQDEDFEHRLTRAVTDRAPHEPLIPALRREILALVRHCTADSAAPIWRMIDASPALRKYDESVRLRHAEALATAIAADPTRTRSETAARTLARFVIDAYSLSREAPDPEAALDEIFPMIEAAWAAARPPHPT | not soluble |
| MSLPHALIVEDDPNSLSGLSAILAADGFSVDTATTIAEARAALTRFIPDVVLVDLNLPDGSGLDLLQHLPAHPPGGALPVIVMTGNATVESAIEGLRHGIWDYLLKPVNIPRLRSLLARIPRPYELTEEVQTLRASLRQLGRFGSMLGRSGAIQHVYDTIEHIAPTEAAVLISGETGTGKQIAARTMHDMSRRRKGPFITFDCRSANSAGVQRSLDSLLFGHERGAFNGAEQREPGLFEQASGGTLFIEEIAELPRAQQEALLRALDSQTFMRVGGTNQVVTDFRLIASTRKAPRAAVADGSLHEDLALRLEAAAVTLPPLRERGEDPALIAQAVVDELNHEGLTRGSAESAKQVAPNFLRECLAYEWPGNVRELQDRVRRAYHASGDVLESLRADEAGSEGHHHHHH | soluble |
| MLTFALTIVRAGETQYNRDKLLQGQGIDTPLSDTGHQQAAAAGRYLKDLHFTNVFVSNLQRAIQTAEIILGNNLHSSATEMILDPLLRERGFGVAEGRPKEHLKNMANAAGQSCRDYTPPGGETLEQVKTRFKMFLKSLFQRMFEEHGSALSSVPSEADQPVIAGLADDGAQNVPVHALMVSHGAFIRISVRHLVEDLQCCLPAGLKMNQVFSPCPNTGISRFIFTIHREESVLRATRIQGVFINRKDHLEEVKNSDLEHHHHHH | soluble |
| MSLGFVPVRGLHHFAYRCRDAEETRQFYEGILGLPLVHVVRAEEVPSTGEYCPYMHLFFEMKDGSCVAFFDLDDDTVPLPSSNTPVWAQHLALRVDSVAAVEEAKRKLEQAGVKVLGPVDHDGFVCSIYFFDPNGVRLELTTDTADSTEMARYRREARPGCDAWTLEKSLRRATGQGSVLREGHHHHHH | not soluble |
| MGKVNVAKLRYMSRDDFRVLTAVEMGMKNHEIVPGSLIASIASLKHGGCNKVLRELVKHKLIAWERTKTVQGYRLTNAGYDYLALKTLSSRQVVESVGNQMGVGKESDIYIVANEEGQQFALKLHRLGRTSFRNLKNKRDYHKYRHNVSWLYLSRLSAMKEFAYMKALYERKFPVPKPIDYNRHAVVMELINGYPLCQIHHVEDPASVYDEAMELIVKLANHGLIHGDFNEFNLILDESDHITMIDFPQMVSTSHPNAEWYFDRDVKCIKDFFMKRFSYESELFPTFKDIRREDTLDVEVSASGYTKEMQADDELLHPLGPDDKNIETKEGSEFSFSDGEVAEKAEVYGSENESERNCLEESEGCYCRSSGDPEQIKEDSLSEESADARSFEMTEFNQALEEIKGQVVENNSVTEFSEEKNRTENYNRQDGQRVQGGVPAGSDEYEDECPHLIALSSLNREFRPFRDEENVGAMNQYRTRTLSITSSGSAVSCSTIPPELVKQKVKRQLTKQQKSAVRRRLQKGEANIFTKQRRENMQNIKSSLEAASFWGE | not soluble |
| MGSDKIHHHHHHMAATSDYDVIVVGGGHNGLTCAGYLARAGKRVLVLERRPIVGGAVCTEEVIPGYKIDVGSSAHIMIHLTPIVRDLELERHGLEYIDMDPYAFYPLPDGSGAIYFYRDVERTCQSIATVSPRDAEAYRRFLDFWTPLNEAVFDVFLNPPSVTRLFGKVASSIPRLPKAEQKVLEVTRRLFTSYAQLIEETFESEAMRAAMTWLAAQSGPPPDEIGAGDFFGWHAMLHYSGAKHPRGGSGMLTQAMARSLKAMGGEVILDAPVRRILVQNGRVQAWKRQTVSAIRPRLLFPTLTC | not soluble |
| MGSDKIHHHHHHMTQRTFTPPWWARNPHVQTILPVLTKVNKPALTRQRLELEDGDFIDLDWLAKPTQTAPTQIEPIVVLVHGLEGSADSHYARRLLTLLDDHKVAALVHHHRSCSGVTNRLARSYHSGDTQDLHTTLSQLRRDYPDSPLLAVGYSLGGNVLTKYMGEHGSDSLVDRAVVISAPLQLGACAKRLRHGFSKVYQSYLIKQLQQKVRDKLALPDLSAQMPVTQAEVESLTTFHLFDDRVTAPLHGFDGVEDYYRRASGLPYLSQVAKPTLVIHAKDDPFMTDEVIPTQEALSPQVTYELHPQGGHVGFIDGGHPFKPRYYLEQRIVHFLLEA | not soluble |
| MGSSHHHHHHSSGLVPRGSHMPLYYRSIIEEHMAVRKHVGIFDVSHMGDVTVSGKDASAFLDHMFPTKVSNLKNGECVYTAFLNDSGLMIDDTIVYRMGEDSYFFVPNAGTTEKIYRWVSDHSAGYSVKIENVSNRISSIALQGPESEEVLNELGFSYPGYFKFQYVSGKYMNAITGKDQIIISGTGYTGEKGVEFIIPNEHAVELWKKLLEAINKRNGLPAGLGARDTLRMEKGMLLSGHDFNEDRDPYEASVSFIVNNDEDFVGKKNLEIRRRSDHEIFRGFVLSDGIPRNGNPIKAGGKRVGTVTSGTISPVLNKGIALGYIDKAYSKENTEVMIEIRSVDHKAVVTKPRIVK | soluble |
| MSLSGETLYQQLVNEWMELIRNGTVRPGERLPSVRKACAMHKVSPSTILQTYRMLEDRGLIEARPQSGFYVKSAASLPLPRMRRQSAAHHTGEVVDQIEAVMGVQSQADFIDLALASPRGSDFYPTTRFKHIMGRLLRQHPELTTDYPFPPGSERLRRQIAQRAVNWGCVLAADELVISNGCTEALQLALRAVCKPGDTVGVESPTYFALLPMLKDLGLAVIEIPTHPTSGLALDALELLLSEKRLNAVVAMPTVHNPLGSTMPPEAKRRLAQLVNDYQVPLIEDVPHAELFYGASTPDAVKAYDRDGWVLLCSSYSKTLAPGFRIGWIAPGRFLSEVRRLKFSSSLGQPALLEETLAEYLESGGYDHHLRLLRRHFISQMEKLRGAVAQHFPDGTRATLPSGGCLLWVELPSHADTMQLFRAALAERITVVPGAMYSAKGRYRNCLRLSCCYPWNEAYQRALIRVGELAGELAEGHEGHHHHHH | soluble |
| MGSDKIHHHHHHMDFIEVYPNALPDDLCDRLILAFDQHTGVVDGQTGNGVDPEKKISRDLTLDNFDDMQPLKNELLSYTLKGVVDYFTQYSMALMGAVAVSVSDAEGKPTTLTPSNFAQLGLPKVDGLVKYLYRSGSINIQKYQRNKGGYPHWHSEQFPQSGHNEALHRVVFYMFYLNDVEEGGETEFYYQRRKISPKKGTMVIAPAGFTHSHRGNMPISNDKYIATSWVMFNRAEQLYTVYA | not soluble |
| TRVYDESGKEVGKLFGQKGTFVELDNISPYIQDAVISTEDRGFYQHKGYSIKGIARAVVGKLTFGKIGGGGGGSTITQQLAKNAYLTQEQTLDRKARELFLAIEIEKKYSKKDILAMYLNNSYFGNGVWGVQDAARKYFGVDASQVTVGEAATLAGMLKGPGIYNPIDYI | not soluble |
| MGLISKNRGPCQVCHNTETTRRHFGIISCTACAAFFRRSIGMQYLCTAENRCTISFDRKFFCRACRYASCLKAGMKLELIRKQKNNIYLRFPDAASNQQNLVRDSMSPATSEGGQSSSSKTDEESDDPEYSKILKMYHDDLLQYYVKEVKKMMAEKRRGCEKNTLQIKTISDLMLITARQSGPSMEECLRCPGVDMLEKEDVEALLRYYRFSNIWVDSVLIDSVLESAKGDSHTDTDDRLSRFIQEVKSTLGSSLAHLNLNIYEFAAFKALCIWKLRFYETSFAQKIIAHEHYEGVTGALRNYYENCTELADMEIAIRIGDITLQIVTVQNTYHEMVRLYYQIGMPL | not soluble |
| MIQFNQVSKSYEDGTKAVDSLHLEIKKGEFFVLIGPSGCGKTTTMKMINRLIETTEGSILIDGKDIQQYNINELRWDIGYVLQQIALFPHMTIAENIAVVPEMRKWSKEKIKARVDELLQMVGLDPDVYRNRMPDELSGGQKQRIGVVRALAANPKIVLMDEPFSALDPLSREQLQKDIVQLQKKIQKTIVFVTHDMQEALSLGDRICIMKEGKVVQLDTPEGIIHNPKNEFVEEFIGNRGRPWYEGKSIEDVLPLDESIRIEGEALSLHSSLQEALVRLRADEVVPVEEKGRYVGALTSRHIVNYIVEQMKERG | not soluble |

From the DeepSol protein solubility set
